According to patent publication US20090252754A1, “Vaccines containing the hiv tat protein as an adjuvant for the enhancement of cytotoxic t-cell responses” (priority 2003, published 2009):
Substitutions are numbered along the chain they refer to. Like-named read-outs stand apart in the source and are kept apart here.

B1: oxidised Tat: oxidised form of the HIV-1 Tat protein, used as control (protein, UniProt P04608 1-86, looked up)
Protein Tat: MEPVDPRLEPWKHPGSQPKTACTNCYCKKCCFHCQVCFITKALGISYGRKKRRQRRRAHQNSQTHQASLSKQPTSQPRGDPTGPKE
modifications: oxidised
notes: oxidised form of the HIV-1 Tat protein, used as control
B2: Tat22: mutated HIV-1 Tat carrying glycine instead of cysteine 22 (SEQ ID NO 286) (protein)
chain: B1 Protein Tat with C22G, A58P, H59P, N61G, A67V, P77S

Tests used:
LMP2 = LMP2 expression in splenocytes of mice treated i.m. with Tat (Western blot); format: in vivo; details: Balb/c mice, 1 μg i.m., 3 consecutive treatments
Description: Equal amounts of proteins were loaded on a 12% SDS-PAGE gel and electroblotted onto Protran nitrocellulose membranes (Schleicher & Schuell, Keene, Hampshire, USA). The blots were probed with antibodies specific for α2, LMP2, LMP7, MECL1, and PA28α subunits (Affinity, Exeter, UK) and developed by enhanced chemiluminescence (ECL, Amersham Pharmacia Biotech, Uppsala, SW).
Animal use was according to national and institutional guidelines. Seven-to-eight week old female Balb/c mice (Nossan, Milan, Italy) were injected with native monomeric biologically active Tat protein (1 μg) resuspended in degassed sterile PBS. Control mice were injected with oxidised Tat (1 μg) or with PBS alone. Samples (100 μl) were given by intramuscular (i.m.) injections in the quadriceps muscles of the posterior legs. Each experimental group consisted of three mice, and the experiment was repeated twice. Mice were boosted at days 11 and 20 after the first injection. Seven days after the last injection, animals were anaesthetised intraperitoneally (i.p.) with 100 μl of isotonic solution containing 1 mg of Inoketan (Virbac, Milan, Italy), and 200 μg Rompun (Bayer, Milan, Italy) and sacrificed to collect spleens. Mononuclear cells from individual spleens were purified using cells strainers, resuspended in PBS containing 20 mM EDTA, and treated with a red blood cells lysis buffer for 4 minutes at room temperature. […]

HIV-1 LTR = details: in contrast to wild-type Tat, cited from earlier work
[1] = test system: proteasome subunits (α2, LMP2, LMP7, MECL1) in Jurkat cells; experiment: Western blot of proteasome subunits in Jurkat cells expressing or treated with Tat, Tat mutants or Tat peptides; format: cell-based, human; details: Jurkat cells expressing mutant
Procedure: Jurkat T cells expressing Tat or mutated Tat (referred to as Tat22, wherein a Cys at position 22 is mutated) have previously been described (1). Cells were cultured in a medium supplemented with 800 μg/ml neomycin (Sigma, St. Louise, […].).
Cells were lysed with glass beads as previously described (4). Supernatants were ultracentrifuged for 1 h at 100,000 g and loaded into an affinity column containing a matrix derivatised with the MCP21 mAb specific for the α2 subunit of the proteasome (Affinity, Exeter, UK). Proteasomes were eluted with 25 mM Tris-HCl pH 7.5 containing 2 M NaCl, and 0.5 ml fractions were collected. Homogeneity of the eluted material was confirmed by analysis of an aliquot by SDS 12% PAGE and Coomassie blue staining of the gel. Fractions containing proteasomes were combined and dialysed against 25 mM Tris-HCl pH 7.5. Protein concentration was determined using the BCA method (Pierce Chemical, Rockford, Ill.).
Equal amounts of proteins, or equal amounts of purified proteasomes, were loaded on a 12% SDS-PAGE and electro-blotted onto Protran nitrocellulose membranes (Schleicher & Schuell, Keene, Hampshire, USA). Blots were probed with Abs specific for α2, LMP2 LMP7, MECL1, and PA28α subunits (Affinity), and developed by enhanced chemi-luminescence (ECL, Amersham Pharmacia Biotech, Uppsala, SW).

Molecule | LMP2 expression in splenocytes (LMP2) | reactivation of latent infection (HIV-1 LTR) | transactivation of the HIV-1 LTR (HIV-1 LTR) | reactivation of latent infection (HIV-1 LTR; listed as Tatcys22) | subunit composition of proteasomes [1]
B1 | no effect |  |  |  | 
B2 |  | do not induce | no effect | does not induce | modifies the subunit composition of proteasomes
